Assay results taken from article PMC11559089.

How the values were obtained:
[1] = biological target: full-length HIV-1 integrase Y99H/A128T (HIV-1); assay: SEC; Superdex 200 10/300 GL; 20 µM IN; 20 mM HEPES pH 7.5, 1 M NaCl, 10% glycerol, 5 mM BME; 0.3 mL/min; incubated 1 h at 4°C; size by protein standards; no inhibitor
[2] = biological target: full-length WT HIV-1 integrase (IN) (HIV-1); assay: as above

Substance “full-length HIV-1 integrase Y99H/A128T (enzyme)” has a stoichiometry N [1] of 4.
With “full-length WT HIV-1 integrase (IN) (enzyme)” the stoichiometry N [2] was 4.
